Experimental data: patent US20210395318A1 (Molecular Partners, published 2021)

Legend:
mouse serum albumin = target: T1, mouse serum albumin (mouse, UniProt P07724 25-608); assay: SPR (ProteOn XPR36), Protein #5 captured on hFAP-coated GLC chip, serum albumin as analyte, PBST; flagged as overestimated, inaccurate fit
T1 construct: also called MSA
Description: (§1) All SPR measurements were performed using a ProteOn XPR36 instrument (BioRad) and a running buffer of PBS pH 7.4 containing 0.005% Tween 20® (PBST). The 1:1 Langmuir model was used for the fitting of SPR traces.
ProteOn setup for Protein #5 binding to serum albumin of different species. First, human FAP (hFAP) was coated on a GLC chip (BioRad) to a level of 700 RU before 50 nM Protein #5 was immobilized as analyte for 120 s (dissociation of 0 s) at constant flow of 100 μl/min to a level of 120 RU. The binding of the serum albumin to Protein #5 was measured by injecting human serum albumin (HSA), cynomolgus serum albumin (CSA) and mouse serum albumin (MSA) in a serial dilution of 100, 33, 11 and 3.7 nM with an association of 120 s and a dissociation of 600 s at a constant flow of 100 μl/min. HSA, CSA and MSA binding was measured serially and the hFAP/Protein #5 complex was regenerated each time with 10 mM glycine pH2 for 18 s at a flow of 100 μl/min. Thus, Protein #5 had to be re-immobilized on hFAP after each regeneration step. […] The kinetic was calculated on the first 300 s of dissociation.

human FAP (recombinant) = target: T2, human FAP (recombinant) (human, UniProt Q12884 26-760); assay: SPR (ProteOn XPR36), FAP immobilized on GLC chip, Protein #5 as analyte, PBST, 1:1 Langmuir
T2 construct: also called hFAP; rhFAP
T2 sequence: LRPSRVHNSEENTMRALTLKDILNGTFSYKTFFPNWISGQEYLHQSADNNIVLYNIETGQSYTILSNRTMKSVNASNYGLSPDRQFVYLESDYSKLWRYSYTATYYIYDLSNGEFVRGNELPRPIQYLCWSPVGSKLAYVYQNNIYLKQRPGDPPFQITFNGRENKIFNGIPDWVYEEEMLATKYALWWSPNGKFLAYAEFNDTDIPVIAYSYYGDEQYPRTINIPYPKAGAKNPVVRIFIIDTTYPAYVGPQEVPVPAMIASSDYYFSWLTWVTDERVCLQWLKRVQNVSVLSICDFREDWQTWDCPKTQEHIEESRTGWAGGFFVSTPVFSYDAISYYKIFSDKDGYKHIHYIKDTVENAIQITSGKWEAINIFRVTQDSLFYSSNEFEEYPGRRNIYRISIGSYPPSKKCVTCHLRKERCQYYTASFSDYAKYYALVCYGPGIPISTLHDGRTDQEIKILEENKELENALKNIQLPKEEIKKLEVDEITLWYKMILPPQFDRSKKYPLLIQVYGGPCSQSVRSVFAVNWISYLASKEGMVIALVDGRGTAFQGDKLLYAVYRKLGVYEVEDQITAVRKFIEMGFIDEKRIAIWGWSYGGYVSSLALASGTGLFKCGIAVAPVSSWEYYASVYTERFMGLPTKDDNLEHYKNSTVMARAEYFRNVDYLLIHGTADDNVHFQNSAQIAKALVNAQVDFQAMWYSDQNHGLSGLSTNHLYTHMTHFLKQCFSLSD
Description: as §1
(§2) ProteOn setup for Protein #5 binding to FAP of different species. hFAP, cynomolgus FAP (cFAP) and mouse FAP (mFAP) were immobilized on a GLC chip (BioRad) in 10 mM Na Acetate buffer pH5.3 to a level of 1200 RU, 800 RU and 2000 RU, respectively. The interaction of FAP and Protein #5 was measured by applying Protein #5 in a serial dilution of […] and 3.13 nM with an association of 120 s and dissociation of 1800 s using a constant flow of 100 μl/min. The targets were regenerated using 10 mM glycine pH 2 and 124 mM H₃PO₄. The signals were double referenced against the PBST treated control lanes.

cynomolgus FAP = target: T3, cynomolgus FAP (cynomolgus); assay: as above
T3 chain: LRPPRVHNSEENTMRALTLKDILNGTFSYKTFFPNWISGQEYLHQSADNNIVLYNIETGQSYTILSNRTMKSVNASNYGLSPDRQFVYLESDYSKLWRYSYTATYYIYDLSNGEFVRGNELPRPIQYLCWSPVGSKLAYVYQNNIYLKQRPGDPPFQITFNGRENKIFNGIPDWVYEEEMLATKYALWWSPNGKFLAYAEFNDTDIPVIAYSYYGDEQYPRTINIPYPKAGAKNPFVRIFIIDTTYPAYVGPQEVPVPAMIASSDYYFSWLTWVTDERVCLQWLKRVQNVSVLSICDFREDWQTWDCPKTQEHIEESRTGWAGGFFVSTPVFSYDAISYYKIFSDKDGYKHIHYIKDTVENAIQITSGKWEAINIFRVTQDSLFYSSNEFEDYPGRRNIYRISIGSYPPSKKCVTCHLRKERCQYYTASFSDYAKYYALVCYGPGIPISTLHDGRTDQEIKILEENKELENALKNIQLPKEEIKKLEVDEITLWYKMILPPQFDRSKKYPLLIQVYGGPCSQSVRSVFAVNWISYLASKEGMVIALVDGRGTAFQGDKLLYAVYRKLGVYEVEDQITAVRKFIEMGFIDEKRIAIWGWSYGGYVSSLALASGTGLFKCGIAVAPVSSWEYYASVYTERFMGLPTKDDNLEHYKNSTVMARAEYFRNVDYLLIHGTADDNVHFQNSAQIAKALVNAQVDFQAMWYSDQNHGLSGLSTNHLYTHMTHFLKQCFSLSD
Description: as §1, §2

B1: DARPin Protein #5 (designed binder)
chain: GSDLGKKLLEAARAGQDDEVRELLKAGADVNAKDYFSHTPLHLAARNGHLKIVEVLLKAGADVNAKDFAGKTPLHLAAADGHLEIVEVLLKAGADVNAQDIFGKTPADIAADAGHEDIAEVLQKAAGSPTPTPTTPTPTPTTPTPTPTGSDLGKKLLEAARAGQDDEVRILLAAGADVNAKDVLGWTPLHLAAFEGHLEIVEVLLKAGADVNAKDKKGWTPLQLAARTGHLEIVEVLLKAGADVNAKDHIGATPLHLAAWQGHPEIVEVLLKAGADVNAQDKSGKTPADLAADAGHEDIAEVLQKAAGSPTPTPTTPTPTPTTPTPTPTGSDLGKKLLQAARAGQLDEVRELLKAGADVNAKDTWGFTPLHIAAESGHLEIVEVLLKAGADVNAKDVQGRTPLHIAAHSGHLEIVEVLLKAGADVNAKDFRGWTPLHLAAWSGHLEIVEILLKAGADVNAQDKSGKTPADLAARAGHQDIAEVLQKAAGSPTPTPTTPTPTPTTPTPTPTGSDLGKKLLQAARAGQLDEVRELLKAGADVNAKDTWGFTPLHIAAESGHLEIVEVLLKAGADVNAKDVQGRTPLHIAAHSGHLEIVEVLLKAGADVNAKDFRGWTPLHLAAWSGHLEIVEILLKAGADVNAQDKSGKTPADLAARAGHQDIAEVLQKAA
notes: also called SMA136; Molecule No. 1
koff (mouse serum albumin): 0.0126 s⁻¹ | kon (mouse serum albumin): 315000 M⁻¹ s⁻¹ | Kd (human FAP (recombinant)): 0.307 nM | koff (human FAP (recombinant)): 0.000126 s⁻¹ | kon (human FAP (recombinant)): 409000 M⁻¹ s⁻¹ | Kd (cynomolgus FAP): 0.339 nM | koff (cynomolgus FAP): 0.000146 s⁻¹ | kon (cynomolgus FAP): 432000 M⁻¹ s⁻¹
